Patent CN105461808A (CHANGCHUN GENESCIENCE PHARMACEUTICALS CO LTD, dated 2016)
One block for each binder: values may come before it.

Assays:
[1] = target: T1, MonkeyPDL1-his (monkey); assay: ELISA, MonkeyPDL1-his coated 1 ug/ml, antibody titrated, HRP secondary
T1 construct: Coating antigen of the ELISA on monkey PD-L1; also called 猴PDL-1

[2] = target: T2, PDL1-hFc (human, UniProt Q9NZQ7 19-238, limits assumed); assay: ELISA, PDL1-hFc coated 1 ug/ml, antibody titrated, HRP secondary
T2 construct: Coating antigen of the ELISA on human PD-L1 and of the T cell proliferation assay; also called humanPDL-1; 人PDL-1; not shown: human Fc (hFc)
T2 sequence (Q9NZQ7 19-238 limits assumed): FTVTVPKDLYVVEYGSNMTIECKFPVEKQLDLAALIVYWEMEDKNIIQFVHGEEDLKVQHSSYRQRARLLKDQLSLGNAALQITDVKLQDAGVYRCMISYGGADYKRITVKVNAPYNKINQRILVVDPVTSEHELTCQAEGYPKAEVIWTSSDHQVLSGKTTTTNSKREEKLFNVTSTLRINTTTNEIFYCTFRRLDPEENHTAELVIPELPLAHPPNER

EC50 [1]: 123 pM
EC50 [2]: 49 pM
B1: H017-6F11.3.2 (antibody, mouse IgG2b, V domains shown)
VH: EVQLQQSGAELVKPGASVKLSCTASGFNIKDTYIHWMRQRPEQGLEWIGRIDPANDNTKYDPKFQGKATVTADTSSNTAYLQLSSLTSEDTAVYYCARGLRLRYFDVWGAGTTVTVSS
VL: DIQMTQTPSSLSASLGGKVTITCKASQDIHKYIAWYQHKPGKGPRLLIHYTSTLQPGIPSRFSGSGSGRDFSFSISNLEPEDFETYYCLQYENLLPTFGGGTKLEIK
notes: Mouse hybridoma antibody purified from supernatant

EC50 [1]: 700 pM
EC50 [2]: 133 pM
B2: H018-17B5.5.1 (antibody, mouse IgG1, V domains shown)
VH: QVQLQQSGAELMKPGASVKISCKATGYKFSSYWIEWVKQRPGHGLEWIGEILPGSGNPNYDEKFKGKATFTADTSSNTAYMQLSSLTSEDSAVYYCARERWMDSWGQGTSVTVSS
VL: DIQMTQTASSLSASLGDRVTISCSASQGIFNYLNWYQQKPDGTVTVLIYYTSRLHSGVPSRFSGSGSGTDYSLTISNLEPEDIATYYCQQYSKLPYTFGGGTKLEIKR
notes: as for B1

EC50 [1]: 191 pM
EC50 [2]: 79 pM
B3: H017-9C10.2.8 (antibody, mouse IgG1, V domains shown)
VH: QVQLKQSGFGLVLPSQSLSITCTVSGFSLTSYGVHWVRQSPGKGLEWLGLIWSGGGTDYNAAFISRLSISKDNSKSQVFFKINSLQANDTAIYYCARQLGLRAMDYWGQGTSVTVSS
VL: DILLTQSPAILSVSPGERVSFSCRASQSIGTTIHWYQQRTNGSPRLLIKYASESVSGIPSRFSGSGSGTDFTLSINSVESEDIADYYCQQSNSWPLTFGAGTKLEIK
notes: as for B1
